Here are results for one molecule from patent US20250270295A1 (ALBERT LUDWIGS UNIVERSITAET FREIBURG, published 2025).

For the test, the target named is T1, C-reactive protein (human, UniProt P02741 19-224).
T1 construct: also called CRP; human CRP
T1 sequence: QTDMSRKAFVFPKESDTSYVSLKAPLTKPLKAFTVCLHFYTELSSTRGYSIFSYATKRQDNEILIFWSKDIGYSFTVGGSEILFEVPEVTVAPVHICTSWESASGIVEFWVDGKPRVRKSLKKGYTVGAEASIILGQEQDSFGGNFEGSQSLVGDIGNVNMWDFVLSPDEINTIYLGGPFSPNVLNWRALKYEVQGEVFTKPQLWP
As to the kind of experiment: ELISA, CRP beside IgG1 and IgA. (In general: In an ELISA, binding on a coated surface is turned into a signal by an enzyme label.)

B1: soluble gp34 ectodomain W65F, V5-His tagged (sgp34mtrp-V5-His) (receptor)
chain: SSSNAVEPTKKPLKLANYRATCEDRTRTLVTRLNTSHHSVVFQRYDIYSRYMRRMPPLCIITDAYKETTRQGGAAFACTRQNLTLYNLTVKDTGVYLLQDQYTGDVEAFYLIIHPRSFCRALETRRCFYPGPGRVVVTDSQEADRAIISDLKRQWSGKPIPNPLLGLDSTRTGHHHHHH
notes: signal peptide 1-23 left out; V5 and His tags are in the entry; Forms only monomers and dimers; also called sol gp34mtrp; gp34 1-179 W65F
As for B1, the binding result was “binds”.
